# According to PMC5812564:
# Tests used:
# RAGE V domain = RAGE V domain (UniProt Q15109)
# S100A1 (human) [1] = experiment: other fluorescence titration; intrinsic tryptophan fluorescence of 3.50 μM S100A1, S100B added from 0 to 42 μM in steps of 2 μM; excitation 295 nm, emission read at 351 nm
# S100A1 (human) [2] = experiment: NMR titration; 1H-15N HSQC, 15N-labelled protein with the unlabelled partner added, each pair in both directions, molar ratios 1:0 and 1:1 (1:0.66 and 1:1 for Kd); 25 °C; 20 mM Tris, 5 mM CaCl2, 5 mM DTT, 50 mM (NH4)2SO4, pH 7.2; Kd as the mean over selected residues
# [3] = target: S100A1 as used in the titrations with the RAGE V domain (mutant-S100A1 (C85S) by the introduction) (human); experiment: as above
# RAGE V domain, sequence (Q15109 24-128): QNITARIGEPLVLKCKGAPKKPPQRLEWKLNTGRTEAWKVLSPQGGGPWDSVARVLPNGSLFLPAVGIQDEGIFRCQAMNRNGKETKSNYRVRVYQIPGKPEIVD
substance,measurement,setting,value
S100A1 (natural protein),"WST-1 proliferation assay, serum-starved SW480 cells (RAGE highly expressed) treated for 48 h with 10, 50 and 100 nM S100A1; viable cell count against the serum-free control",RAGE V domain,1.53 fold
same,"WST-1 proliferation assay, serum-starved SW480 cells treated for 48 h with 100 nM S100A1 and 100 nM S100B; viable cell count against the serum-free control",RAGE V domain,1.39 fold
S100B (natural protein),Kd,S100A1 (human) [1],1.9 µM
same,Kd,S100A1 (human) [2],5.9 µM
RAGE V domain (from UniProt Q15109 24-128) (domain or fragment),Kd,[3],6.13 µM
